Assay results taken from US20230365714A1 (published 2023).

Target: T1, ROR211 shuffle variant (Ig-like domain of ROR2, CRD and kringle domain of ROR1) (human (ROR1/ROR2 chimera), UniProt Q01973 18-937)
T1 construct: Transiently expressed on CHO cells
T1 chain: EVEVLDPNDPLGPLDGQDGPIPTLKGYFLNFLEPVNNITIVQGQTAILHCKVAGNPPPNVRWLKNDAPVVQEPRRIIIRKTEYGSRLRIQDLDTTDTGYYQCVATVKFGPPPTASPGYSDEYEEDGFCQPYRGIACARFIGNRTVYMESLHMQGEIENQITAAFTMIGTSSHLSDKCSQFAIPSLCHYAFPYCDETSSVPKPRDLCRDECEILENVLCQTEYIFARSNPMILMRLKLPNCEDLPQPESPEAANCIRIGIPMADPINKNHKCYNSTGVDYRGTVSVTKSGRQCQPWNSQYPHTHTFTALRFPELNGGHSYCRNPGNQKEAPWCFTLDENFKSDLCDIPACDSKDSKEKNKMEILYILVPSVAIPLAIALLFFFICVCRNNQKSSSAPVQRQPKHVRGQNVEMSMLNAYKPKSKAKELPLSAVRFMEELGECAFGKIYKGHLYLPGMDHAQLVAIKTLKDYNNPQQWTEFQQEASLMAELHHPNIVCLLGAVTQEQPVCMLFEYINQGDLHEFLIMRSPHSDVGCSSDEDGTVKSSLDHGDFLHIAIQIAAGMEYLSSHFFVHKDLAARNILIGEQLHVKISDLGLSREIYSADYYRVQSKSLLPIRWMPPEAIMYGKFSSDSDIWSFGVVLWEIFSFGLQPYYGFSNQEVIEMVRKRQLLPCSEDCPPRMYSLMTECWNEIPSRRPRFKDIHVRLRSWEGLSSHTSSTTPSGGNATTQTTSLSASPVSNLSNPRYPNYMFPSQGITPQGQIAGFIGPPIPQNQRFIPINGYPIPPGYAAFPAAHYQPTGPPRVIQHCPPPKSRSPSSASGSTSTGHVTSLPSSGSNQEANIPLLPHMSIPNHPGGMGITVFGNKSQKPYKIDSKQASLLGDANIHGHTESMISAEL
Experiment: cell imaging (CellInsight) on CHO cells expressing the shuffle construct
Method: Binding was determined […] using a cell imaging screening system (Celllnsight, Thermo Fisher) as per manufacturer's recommendations. In short, CHO cells expressing shuffle constructs ROR112, ROR121, ROR122, ROR211 or ROR221 (3,000 cells/well in 384-well plates) were incubated with antibody or control samples for 18 h at 37° C./5% CO₂, washed and incubated with an Alexa488-labeled detection antibody for 4 h. Hoechst dye was added and fluorescence images were collected, measuring total spot intensity (RFU).

B1: chIgG1-ROR2-A (antibody, V domains shown)
VH: QSVEESGGRLVTPGTPLTLTCTVSGFSLSSYSMSWVRQAPGKGLEWIGVIYVNSKTWYANWAKGRFTISKTSTTVDLKITSPTTEDTATYFCARGDAGYTTNSWLWGPGTLVTVSS
VL: AFELTQTPASVSEPVGGTVTIKCQASESIDNYCSWYQQKPGQPPKLLIYQAFKLASGVPSRFRGSGSGTQFTLTISDLESDDAATYYCQSYSGISTTAFGGGTEVVVK
notes: Rabbit-human chimeric antibody; also called ROR2 specific antibody A
RFU (total spot intensity): 0 RFU | binding result: no binding (tested: RFU = 0)
